{"source": "patent US20250298024A1", "key": {"[1]": {"molecular_target": "polypeptide molecule 8 (human) (UniProt P05186)", "sequence (P05186 other isoform, or with tags, fused parts or gaps limits assumed)": "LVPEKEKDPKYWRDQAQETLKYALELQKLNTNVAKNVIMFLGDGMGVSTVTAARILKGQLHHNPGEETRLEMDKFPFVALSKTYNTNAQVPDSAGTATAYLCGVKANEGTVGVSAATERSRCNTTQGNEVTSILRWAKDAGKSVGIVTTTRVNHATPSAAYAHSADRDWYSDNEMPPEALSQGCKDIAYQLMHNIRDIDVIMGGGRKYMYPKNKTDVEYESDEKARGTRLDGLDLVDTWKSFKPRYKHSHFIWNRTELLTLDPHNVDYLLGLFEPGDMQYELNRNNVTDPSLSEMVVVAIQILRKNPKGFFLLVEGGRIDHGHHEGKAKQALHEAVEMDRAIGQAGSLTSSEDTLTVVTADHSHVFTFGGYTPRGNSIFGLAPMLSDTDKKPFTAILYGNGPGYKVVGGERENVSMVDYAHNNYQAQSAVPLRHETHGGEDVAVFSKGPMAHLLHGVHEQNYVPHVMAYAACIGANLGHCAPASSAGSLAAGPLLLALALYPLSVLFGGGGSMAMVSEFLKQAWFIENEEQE", "assay": "sandwich ELISA, ALP-labeled anti-TNAP detection; calibrator C3 (70 ug/mL), run 1"}, "[2]": {"molecular_target": "polypeptide molecule 8 (human) (UniProt P05186)", "assay": "sandwich ELISA, ALP-labeled anti-TNAP detection; calibrator C2 (35 ug/mL), run 2"}, "[3]": {"molecular_target": "polypeptide molecule 8 (human) (UniProt P05186)", "assay": "sandwich ELISA, ALP-labeled anti-TNAP detection; calibrator C5 (280 ug/mL), run 2"}, "[4]": {"molecular_target": "polypeptide molecule 8 (human) (UniProt P05186)", "assay": "sandwich ELISA, ALP-labeled anti-TNAP detection; calibrator C4 (140 ug/mL), run 2"}, "[5]": {"molecular_target": "polypeptide molecule 8 (human) (UniProt P05186)", "assay": "sandwich ELISA, ALP-labeled anti-TNAP detection; calibrator C1 (17.5 ug/mL), mean of 3"}, "[6]": {"molecular_target": "polypeptide molecule 8 (human) (UniProt P05186)", "assay": "sandwich ELISA, ALP-labeled anti-TNAP detection; calibrator C1 (17.5 ug/mL), run 1"}, "[7]": {"molecular_target": "polypeptide molecule 8 (human) (UniProt P05186)", "assay": "sandwich ELISA, ALP-labeled anti-TNAP detection; calibrator C1 (17.5 ug/mL), run 2"}, "[8]": {"molecular_target": "polypeptide molecule 8 (human) (UniProt P05186)", "assay": "sandwich ELISA, ALP-labeled anti-TNAP detection; calibrator C4 (140 ug/mL), run 3"}, "[9]": {"molecular_target": "polypeptide molecule 8 (human) (UniProt P05186)", "assay": "sandwich ELISA, ALP-labeled anti-TNAP detection; calibrator C2 (35 ug/mL), mean of 3"}, "[10]": {"molecular_target": "polypeptide molecule 8 (human) (UniProt P05186)", "assay": "sandwich ELISA, ALP-labeled anti-TNAP detection; calibrator C2 (35 ug/mL), run 1"}, "[11]": {"molecular_target": "polypeptide molecule 8 (human) (UniProt P05186)", "assay": "sandwich ELISA, ALP-labeled anti-TNAP detection; calibrator C5 (280 ug/mL), mean of 3"}, "[12]": {"molecular_target": "polypeptide molecule 8 (human) (UniProt P05186)", "assay": "sandwich ELISA, ALP-labeled anti-TNAP detection; calibrator C3 (70 ug/mL), mean of 3"}, "[13]": {"molecular_target": "polypeptide molecule 8 (human) (UniProt P05186)", "assay": "sandwich ELISA, ALP-labeled anti-TNAP detection; calibrator C4 (140 ug/mL), mean of 3"}, "[14]": {"molecular_target": "polypeptide molecule 8 (human) (UniProt P05186)", "assay": "sandwich ELISA, ALP-labeled anti-TNAP detection; calibrator C4 (140 ug/mL), run 1"}, "[15]": {"molecular_target": "polypeptide molecule 8 (human) (UniProt P05186)", "assay": "sandwich ELISA, ALP-labeled anti-TNAP detection; calibrator C1 (17.5 ug/mL), run 3"}, "[16]": {"molecular_target": "polypeptide molecule 8 (human) (UniProt P05186)", "assay": "sandwich ELISA, ALP-labeled anti-TNAP detection; calibrator C5 (280 ug/mL), run 3"}, "[17]": {"molecular_target": "polypeptide molecule 8 (human) (UniProt P05186)", "assay": "sandwich ELISA, ALP-labeled anti-TNAP detection; calibrator C2 (35 ug/mL), run 3"}, "[18]": {"molecular_target": "polypeptide molecule 8 (human) (UniProt P05186)", "assay": "sandwich ELISA, ALP-labeled anti-TNAP detection; calibrator C5 (280 ug/mL), run 1"}, "[19]": {"molecular_target": "polypeptide molecule 8 (human) (UniProt P05186)", "assay": "sandwich ELISA, ALP-labeled anti-TNAP detection; calibrator C3 (70 ug/mL), run 3"}, "[20]": {"molecular_target": "polypeptide molecule 8 (human) (UniProt P05186)", "assay": "sandwich ELISA, ALP-labeled anti-TNAP detection; calibrator C3 (70 ug/mL), run 2"}, "[21]": {"molecular_target": "polypeptide molecule 7 (bovine) (UniProt P19111)", "sequence (P19111 other isoform, or with tags, fused parts or gaps limits assumed)": "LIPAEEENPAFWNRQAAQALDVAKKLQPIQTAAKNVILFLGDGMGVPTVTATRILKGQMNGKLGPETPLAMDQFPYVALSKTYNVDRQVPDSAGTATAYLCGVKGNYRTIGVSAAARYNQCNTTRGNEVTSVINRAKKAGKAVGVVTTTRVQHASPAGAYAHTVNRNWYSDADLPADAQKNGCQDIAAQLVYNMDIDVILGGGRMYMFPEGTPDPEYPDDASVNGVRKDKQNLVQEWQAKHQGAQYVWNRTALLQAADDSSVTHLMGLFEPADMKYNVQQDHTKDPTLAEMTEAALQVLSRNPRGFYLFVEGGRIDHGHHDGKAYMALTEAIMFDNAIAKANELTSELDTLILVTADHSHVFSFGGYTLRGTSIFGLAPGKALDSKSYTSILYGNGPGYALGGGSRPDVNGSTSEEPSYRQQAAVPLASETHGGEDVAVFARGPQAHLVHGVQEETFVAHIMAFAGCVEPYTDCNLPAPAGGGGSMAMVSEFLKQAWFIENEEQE", "assay": "HI-1000 capture immunoassay, ALP chemiluminescence; calibrator C2 (0.0711728 ug/mL), run 1"}, "[22]": {"molecular_target": "polypeptide molecule 7 (bovine) (UniProt P19111)", "assay": "HI-1000 capture immunoassay, ALP chemiluminescence; calibrator C1 (0.0177932 ug/mL), run 1"}, "[23]": {"molecular_target": "polypeptide molecule 7 (bovine) (UniProt P19111)", "assay": "HI-1000 capture immunoassay, ALP chemiluminescence; calibrator C2 (0.0711728 ug/mL), run 2"}, "[24]": {"molecular_target": "polypeptide molecule 7 (bovine) (UniProt P19111)", "assay": "HI-1000 capture immunoassay, ALP chemiluminescence; calibrator C1 (0.0177932 ug/mL), mean of 3"}, "[25]": {"molecular_target": "polypeptide molecule 7 (bovine) (UniProt P19111)", "assay": "HI-1000 capture immunoassay, ALP chemiluminescence; calibrator C3 (0.2846914 ug/mL), run 2"}, "[26]": {"molecular_target": "polypeptide molecule 7 (bovine) (UniProt P19111)", "assay": "HI-1000 capture immunoassay, ALP chemiluminescence; calibrator C5 (7.686667 ug/mL), run 3"}, "[27]": {"molecular_target": "polypeptide molecule 7 (bovine) (UniProt P19111)", "assay": "HI-1000 capture immunoassay, ALP chemiluminescence; calibrator C3 (0.2846914 ug/mL), run 1"}, "[28]": {"molecular_target": "polypeptide molecule 7 (bovine) (UniProt P19111)", "assay": "HI-1000 capture immunoassay, ALP chemiluminescence; calibrator C4 (2.562222 ug/mL), run 3"}, "[29]": {"molecular_target": "polypeptide molecule 7 (bovine) (UniProt P19111)", "assay": "HI-1000 capture immunoassay, ALP chemiluminescence; calibrator C4 (2.562222 ug/mL), mean of 3"}, "[30]": {"molecular_target": "polypeptide molecule 7 (bovine) (UniProt P19111)", "assay": "HI-1000 capture immunoassay, ALP chemiluminescence; calibrator C2 (0.0711728 ug/mL), mean of 3"}, "[31]": {"molecular_target": "polypeptide molecule 7 (bovine) (UniProt P19111)", "assay": "HI-1000 capture immunoassay, ALP chemiluminescence; calibrator C5 (7.686667 ug/mL), run 2"}, "[32]": {"molecular_target": "polypeptide molecule 7 (bovine) (UniProt P19111)", "assay": "HI-1000 capture immunoassay, ALP chemiluminescence; calibrator C4 (2.562222 ug/mL), run 2"}, "[33]": {"molecular_target": "polypeptide molecule 7 (bovine) (UniProt P19111)", "assay": "HI-1000 capture immunoassay, ALP chemiluminescence; calibrator C3 (0.2846914 ug/mL), mean of 3"}, "[34]": {"molecular_target": "polypeptide molecule 7 (bovine) (UniProt P19111)", "assay": "HI-1000 capture immunoassay, ALP chemiluminescence; calibrator C5 (7.686667 ug/mL), run 1"}, "[35]": {"molecular_target": "polypeptide molecule 7 (bovine) (UniProt P19111)", "assay": "HI-1000 capture immunoassay, ALP chemiluminescence; calibrator C4 (2.562222 ug/mL), run 1"}, "[36]": {"molecular_target": "polypeptide molecule 7 (bovine) (UniProt P19111)", "assay": "HI-1000 capture immunoassay, ALP chemiluminescence; calibrator C5 (7.686667 ug/mL), mean of 3"}, "[37]": {"molecular_target": "polypeptide molecule 7 (bovine) (UniProt P19111)", "assay": "HI-1000 capture immunoassay, ALP chemiluminescence; calibrator C2 (0.0711728 ug/mL), run 3"}, "[38]": {"molecular_target": "polypeptide molecule 7 (bovine) (UniProt P19111)", "assay": "HI-1000 capture immunoassay, ALP chemiluminescence; calibrator C3 (0.2846914 ug/mL), run 3"}, "[39]": {"molecular_target": "polypeptide molecule 7 (bovine) (UniProt P19111)", "assay": "HI-1000 capture immunoassay, ALP chemiluminescence; calibrator C1 (0.0177932 ug/mL), run 2"}, "[40]": {"molecular_target": "polypeptide molecule 7 (bovine) (UniProt P19111)", "assay": "HI-1000 capture immunoassay, ALP chemiluminescence; calibrator C1 (0.0177932 ug/mL), run 3"}}, "data": [{"substance": "anti-Annexin A1 antibody (Santacruz, sc-12740)", "values": [{"measurement": "relative emission intensity (RLU)", "setting": "[1]", "result": 31900, "unit": "RLU"}, {"measurement": "relative emission intensity (RLU)", "setting": "[2]", "result": 21700, "unit": "RLU"}, {"measurement": "relative emission intensity (RLU)", "setting": "[3]", "result": 86100, "unit": "RLU"}, {"measurement": "relative emission intensity (RLU)", "setting": "[4]", "result": 51900, "unit": "RLU"}, {"measurement": "relative emission intensity (RLU), AV", "setting": "[5]", "result": 16700, "unit": "RLU"}, {"measurement": "relative emission intensity (RLU)", "setting": "[6]", "result": 16500, "unit": "RLU"}, {"measurement": "relative emission intensity (RLU)", "setting": "[7]", "result": 16400, "unit": "RLU"}, {"measurement": "relative emission intensity (RLU)", "setting": "[8]", "result": 50900, "unit": "RLU"}, {"measurement": "relative emission intensity (RLU), AV", "setting": "[9]", "result": 22800, "unit": "RLU"}, {"measurement": "relative emission intensity (RLU)", "setting": "[10]", "result": 21600, "unit": "RLU"}, {"measurement": "relative emission intensity (RLU), AV", "setting": "[11]", "result": 87600, "unit": "RLU"}, {"measurement": "relative emission intensity (RLU), AV", "setting": "[12]", "result": 32400, "unit": "RLU"}, {"measurement": "relative emission intensity (RLU), AV", "setting": "[13]", "result": 51200, "unit": "RLU"}, {"measurement": "relative emission intensity (RLU)", "setting": "[14]", "result": 50900, "unit": "RLU"}, {"measurement": "relative emission intensity (RLU)", "setting": "[15]", "result": 17000, "unit": "RLU"}, {"measurement": "relative emission intensity (RLU)", "setting": "[16]", "result": 87800, "unit": "RLU"}, {"measurement": "relative emission intensity (RLU)", "setting": "[17]", "result": 25000, "unit": "RLU"}, {"measurement": "relative emission intensity (RLU)", "setting": "[18]", "result": 89000, "unit": "RLU"}, {"measurement": "relative emission intensity (RLU)", "setting": "[19]", "result": 32100, "unit": "RLU"}, {"measurement": "relative emission intensity (RLU)", "setting": "[20]", "result": 33200, "unit": "RLU"}]}, {"substance": "biotin-labeled anti-Annexin A1 antibody (Clone: EH17a)", "values": [{"measurement": "emission intensity (count)", "setting": "[21]", "result": 13000, "unit": "count"}, {"measurement": "emission intensity (count)", "setting": "[22]", "result": 3800, "unit": "count"}, {"measurement": "emission intensity (count)", "setting": "[23]", "result": 13100, "unit": "count"}, {"measurement": "emission intensity (count), AV", "setting": "[24]", "result": 3700, "unit": "count"}, {"measurement": "emission intensity (count)", "setting": "[25]", "result": 46800, "unit": "count"}, {"measurement": "emission intensity (count)", "setting": "[26]", "result": 452000, "unit": "count"}, {"measurement": "emission intensity (count)", "setting": "[27]", "result": 47000, "unit": "count"}, {"measurement": "emission intensity (count)", "setting": "[28]", "result": 271000, "unit": "count"}, {"measurement": "emission intensity (count), AV", "setting": "[29]", "result": 266000, "unit": "count"}, {"measurement": "emission intensity (count), AV", "setting": "[30]", "result": 13000, "unit": "count"}, {"measurement": "emission intensity (count)", "setting": "[31]", "result": 460000, "unit": "count"}, {"measurement": "emission intensity (count)", "setting": "[32]", "result": 260000, "unit": "count"}, {"measurement": "emission intensity (count), AV", "setting": "[33]", "result": 46600, "unit": "count"}, {"measurement": "emission intensity (count)", "setting": "[34]", "result": 439000, "unit": "count"}, {"measurement": "emission intensity (count)", "setting": "[35]", "result": 266000, "unit": "count"}, {"measurement": "emission intensity (count), AV", "setting": "[36]", "result": 450000, "unit": "count"}, {"measurement": "emission intensity (count)", "setting": "[37]", "result": 13000, "unit": "count"}, {"measurement": "emission intensity (count)", "setting": "[38]", "result": 45800, "unit": "count"}, {"measurement": "emission intensity (count)", "setting": "[39]", "result": 3650, "unit": "count"}, {"measurement": "emission intensity (count)", "setting": "[40]", "result": 3650, "unit": "count"}]}]}
